Data set [1] concerns the target T1, His-DEK (UniProt P35659 1-375).
T1 sequence: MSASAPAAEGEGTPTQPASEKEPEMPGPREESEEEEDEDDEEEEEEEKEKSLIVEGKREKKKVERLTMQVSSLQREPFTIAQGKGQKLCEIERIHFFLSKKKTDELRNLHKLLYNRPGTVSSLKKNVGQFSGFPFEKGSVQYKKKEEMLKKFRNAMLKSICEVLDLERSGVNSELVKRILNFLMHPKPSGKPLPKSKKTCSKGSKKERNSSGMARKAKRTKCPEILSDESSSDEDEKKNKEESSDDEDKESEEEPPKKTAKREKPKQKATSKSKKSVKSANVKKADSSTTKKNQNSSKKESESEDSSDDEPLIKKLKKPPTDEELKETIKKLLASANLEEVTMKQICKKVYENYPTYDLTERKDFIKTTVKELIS
In words: EMSA; LightShift Chemiluminescent EMSA Kit (Pierce), per manufacturer; buffer, salt, pH and temperature not stated. To be noted: protein: recombinant; tags: His; label: biotin; blunt. On the technique in general: A gel shift assay detects complexes by their altered migration in electrophoresis.

Data set [2] deals with T1, His-DEK. In words: EMSA; abolished by 100-fold excess unlabeled DRE1; LightShift Chemiluminescent EMSA Kit (Pierce), per manufacturer; buffer, salt, pH and temperature not stated. To be noted: protein: recombinant; tags: His; label: biotin; blunt.

B1: DRE2 (dsDNA)
DNA 1: TGGAAAGGGAGGGTTGGGGTGGGTGGGAGCCAGCCCT
DNA 2: AGGGCTGGCTCCCACCCACCCCAACCCTCCCTTTCCA
For B1, the binding result in data set [1] is “no binding”.

B2: DRE1-M (dsDNA)
DNA 1: GGGTTGAGGGCGGGTTCTATTTGAGAAGGCCAGGGGT
DNA 2: ACCCCTGGCCTTCTCAAATAGAACCCGCCCTCAACCC
With B2, in data set [1], the binding result is reported as “no binding”.

B3: DRE1 (dsDNA)
DNA 1: GGGTTGAGGGCGTTGGAGCGGGGAGAAGGCCAGGGGT
DNA 2: ACCCCTGGCCTTCTCCCCGCTCCAACGCCCTCAACCC
In the case of B3, the binding result in data set [2] is reported as “binds”.

B4: HRE (dsDNA)
DNA 1: ACAGTGCATACGTGGGCTCCAACAGGTCCTCTTCCCTCCC
DNA 2: GGGAGGGAAGAGGACCTGTTGGAGCCCACGTATGCACTGT
In the case of B4, the binding result in data set [1] is “no binding”.
